Source: patent US5874218, “Method for detecting a target compound in a substance using a nucleic acid ligand” (NeXstar Pharmaceuticals, Inc.)

How the values were obtained:
[1] = target: hCG (chorionic gonadotropin) (Homo sapiens, UniProt P01215;P0DN86 P01215:25-116,P0DN86:21-165); experiment: dot blot of hCG in urine; detectable at 1.9 nM, saturates above 500 nM; higher signal in low salt buffer with 2 mM MgCl2; conditions: label: radiolabeled
Procedure: Test urine (obtained from pregnant individuals) and control urine (obtained from males) samples were pre-filtered through 0.2 mm polysulfone filters (Gelman Sciences) to remove particulate matter. hCG suspended in control urine to various concentrations (300 ml) was blotted onto pre-wetted nitrocellulose filters (from BioRad) under vacuum. Radiolabeled nucleic acid ligand to hCG, H-42 RNA (SEQ ID NO: 4)(100 ml of 1 pmole/ml) was then added to blots and filtered. Blots were immediately washed two times with 300 ml of TEM buffer. The blots were dried and analyzed by autoradiography and phosphorimager (Fuji).
In preliminary studies, anti-hCG antibodies were first applied to nitrocellulose blots to capture hCG and subsequently the radiolabeled RNA was used to detect the hormone. Such anti-hCG antibodies were required only if hCG was suspended in a buffer. However, if hCG in urine was used there was no significant difference in the signal in the presence and absence of antibodies. This may be due to the presence of other proteins in urine that serve as nonspecific carriers, effectively retaining hCG on the membrane. […] The signal saturates at high hCG concentration (>500 nM). Even at 1.9 nM hCG concentration, signal above background level was detected. Compared to control male urine (blots 1–3), the urine from a pregnant […] […]

[2] = target: hTSH (thyroid stimulating hormone) (Homo sapiens, UniProt P01215;P01222 P01215:25-116,P01222:21-132); experiment: dot blot on nitrocellulose, 50-800 nM hTSH, TEM buffer with 0.1% hSA, 0.5 M urea wash; conditions: tags: Becton Dickinson, Mr 27,700, 9 IU/mg; label: internally radiolabeled
hTSH (thyroid stimulating hormone), sequence (P01215 25-116, chain 1 of 2): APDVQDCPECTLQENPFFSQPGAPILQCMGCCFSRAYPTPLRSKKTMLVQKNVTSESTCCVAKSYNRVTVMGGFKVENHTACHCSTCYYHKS
hTSH (thyroid stimulating hormone), sequence (P01222 21-132, chain 2 of 2): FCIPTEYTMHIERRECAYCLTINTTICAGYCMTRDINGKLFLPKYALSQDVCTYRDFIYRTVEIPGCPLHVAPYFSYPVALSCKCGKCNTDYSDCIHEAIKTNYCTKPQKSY
Procedure: hTSH was suspended in TEM buffer (300 ml) containing 0.1% hSA (w/v) and applied to pre-wetted nitrocellulose filters (0.45 micron; BioRad) under suction. Gel-purified, internally labeled nucleic acid ligand T-15 (SEQ ID NO: 3) was then applied to the blots in 50 ml of TEM buffer (0.2 pmoles/ml) and filtered gently. Filters were immediately washed three times with 300 ml of 0.5M urea in the same buffer. The blots were dried and analyzed with a phosphorimager and by autoradiography.
The results wherein different concentrations of hTSH (from 800 nM (177 mIU/ml) to 50 nM (11 mIU/ml)) blotted on a nitrocellulose membrane were detected by radiolabeled nucleic acid ligand T-15 are shown in FIG. 4. Very low levels of background binding of RNA to nitrocellulose filters in the absence of hTSH (but with hSA in the buffer) was accomplished by washing blots with 0.5M urea in the binding buffer. This step eliminated most nonspecific binding, yet leaving specific binding of ligand T-15 to hTSH largely unaffected. […] However, with the affinity-selected radiolabeled ligand T-15, the radioactive signal on the blot correlated with the concentration of hTSH used. There is a linear relationship between the radioactive signal and the amount of hTSH up to 100 mIU/ml; the signal saturates above this concentration.

hCG (chorionic gonadotropin), sequence (P01215 25-116, chain 1 of 2, other chains not shown): as the sequence (P01215 25-116, chain 1 of 2) above

Row | Binder | binding result [1] | binding result [2]
1 | H-42 (ssRNA, 2'-NH2 pyrimidines (library chemistry)) RNA: GGGAGGACGAUGCGGACAAGGGCCUGAGUGUGGAGGGCACGUGGAGGGGACUGGCCAGACGACUCGCCCGA | binds | –
2 | T-15 (ssRNA, 2'-NH2 on all C and U) RNA: GGGAGGACGAUGCGGAUGUUGGCAGCAGGGUCCGACGGCGUAACCUUGCCAGCUGCAGACGACUCGCCCGA | – | binds
